# Measured values from PMC3264700 (Journal of Molecular and Cellular Cardiology, 2011).
# Several values for one entry are separate records, joined by “and”; a condition that tells them apart may be missing. Identical values can stand only once. Like-named read-outs stand apart in the source and are kept apart here.
# B1: adiponectin, endogenous in human coronary artery VSMC (hCASMC) (natural protein, human (endogenous in hCASMC), UniProt Q15848 19-244, looked up)
# chain: ETTTQGPGVLLPLPKGACTGWMAGIPGHPGHNGAPGRDGRDGTPGEKGEKGDPGLIGPKGDIGETGVPGAEGPRGFPGIQGRKGEPGEGAYVYRSAFSVGLETYVTIPNMPIRFTKIFYNQQNHYDGSTGKFHCNIPGLYYFAYHITVYMKDVKVSLFKKDKAMLFTYDQYQENNVDQASGSVLLHLEVGDQVWLQVYGEGERNGLYADNDNDSTFTGFLLYHDTN
# B2: adiponectin secreted by wild type mouse aortic VSMC (natural protein, UniProt Q60994 18-247, looked up)
# chain: EDDVTTTEELAPALVPPPKGTCAGWMAGIPGHPGHNGTPGRDGRDGTPGEKGEKGDAGLLGPKGETGDVGMTGAEGPRGFPGTPGRKGEPGEAAYVYRSAFSVGLETRVTVPNVPIRFTKIFYNQQNHYDGSTGKFYCNIPGLYYFSYHITVYMKDVKVSLFKKDKAVLFTYDQYQEKNVDQASGSVLLHLEVGDQVWLQVYGDGDHNGLYADNVNDSTFTGFLLYHDTN
# What was measured:
# [1] = target: the molecule itself; test: native gel or EMSA
# [2] = target: the molecule itself; test: native gel or EMSA; remark: listed apart in the source
Protein,stoichiometry N [1],stoichiometry N [2]
B1,2 and 3 and 6,
B2,,3
